One block for each binder: values may come before it.
Columns and labels:
[1] = target: T1, recombinant human KLB (soluble protein) (human, UniProt Q86Z14 53-997, limits assumed); test: SPR, Biacore T200, antibody captured on Protein A chip, monomeric human KLB as analyte, 25 C; mean ± range of two experiments
T1 construct: also called monomeric human KLB; recombinant KLB
Method: (§1) For binding affinity determination of tcIgG and traditional IgG, surface plasmon resonance (SPR) measurements using a BIAcore T200 and ProteinA sensor chip was used and dilutions of monomeric human KLB as analyte were injected over the immobilized tcIgG or traditional IgG at 25° C. to determine monovalent affinities. Association rates (kon) and dissociation rates (koff) were calculated using a simple one-to-one Langmuir binding model. The equilibrium dissociation constant (Kd) was calculated as the ratio koff/kon.

[2] = target: T1, recombinant human KLB (soluble protein); test: SPR (BIAcore T200), antibody captured on Protein A chip, monomeric human KLB as analyte, 25 C, 1:1 Langmuir fit
Method: as §1

[3] = target: T1, recombinant human KLB (soluble protein); test: binding affinity test of Example 7 (FIG. 21); method not restated, presumably the Biacore assay of Example 6; text of Example 7 (FIG. 21); Table 9 prints 2.06 ± 0.11 nM
Method: as §1

Rat KLB = target: T2, Rat KLB (limits assumed); test: FACS, HEK293T cells expressing human/rat KLB chimeric proteins; summary table of + and - by epitope bin
T2 construct: also called rat Klotho-beta
T2 single chain: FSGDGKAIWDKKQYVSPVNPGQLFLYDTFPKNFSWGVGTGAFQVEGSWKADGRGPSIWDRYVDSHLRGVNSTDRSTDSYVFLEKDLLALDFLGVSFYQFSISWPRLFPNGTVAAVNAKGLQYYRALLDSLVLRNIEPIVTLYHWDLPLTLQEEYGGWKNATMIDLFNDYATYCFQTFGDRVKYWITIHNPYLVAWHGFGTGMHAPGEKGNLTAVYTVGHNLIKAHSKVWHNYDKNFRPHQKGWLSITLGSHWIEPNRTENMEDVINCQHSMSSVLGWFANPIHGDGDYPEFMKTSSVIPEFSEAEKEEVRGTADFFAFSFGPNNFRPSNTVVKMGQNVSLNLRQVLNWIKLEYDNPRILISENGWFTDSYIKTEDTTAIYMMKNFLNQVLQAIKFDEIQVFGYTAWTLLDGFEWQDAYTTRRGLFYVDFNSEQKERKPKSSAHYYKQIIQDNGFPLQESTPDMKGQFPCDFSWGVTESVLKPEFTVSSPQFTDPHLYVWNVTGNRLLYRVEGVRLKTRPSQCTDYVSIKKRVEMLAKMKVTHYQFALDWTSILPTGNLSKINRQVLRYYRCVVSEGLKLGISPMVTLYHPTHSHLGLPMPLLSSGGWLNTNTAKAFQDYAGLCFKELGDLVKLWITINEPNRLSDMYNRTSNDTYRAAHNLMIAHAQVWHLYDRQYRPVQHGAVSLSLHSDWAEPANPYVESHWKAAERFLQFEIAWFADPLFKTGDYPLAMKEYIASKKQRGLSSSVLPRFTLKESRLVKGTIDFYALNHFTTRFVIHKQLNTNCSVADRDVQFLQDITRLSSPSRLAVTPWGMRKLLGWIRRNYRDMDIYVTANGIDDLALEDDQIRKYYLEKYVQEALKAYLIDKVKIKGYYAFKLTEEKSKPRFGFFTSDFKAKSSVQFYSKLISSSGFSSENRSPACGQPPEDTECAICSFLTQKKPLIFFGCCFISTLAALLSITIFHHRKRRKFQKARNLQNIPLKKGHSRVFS

[4] = target: T1, recombinant human KLB (soluble protein); test: SPR, Biacore T200, antibody captured on Protein A chip, monomeric human KLB as analyte, 25 C; mean of two experiments
Method: as §1

Kd [1]: 2.06 nM
koff [1]: 0.000244 s⁻¹
kon [1]: 117000 M⁻¹ s⁻¹
kon [2]: 119000 M⁻¹ s⁻¹
Kd [3]: 2.05 nM
B1: anti-KLB antibody clone 28B7 in tri-chain IgG format (antibody)
chain 1: DIVMTQSPSSLAVSVGEKVTLSCKSGQSLLYSRNQKNYLAWYQQKPGQSPKLLISWASTRESGVPDRFTGSGSGTDFTLTISSVKTEDLAVYHCQQYYSYPYTFGGGTRLEIKRGGGGSGGGGSGGGGSGGGGSEVQLQQSGPELVQPGTSVKISCEASGYTFTDYYINWVKQSRGKSLEWIGDINPNNGDTTYNQKFKAKATLTVDRSSNTAYMELRSLTSEDSVVYYCARRFYSSPFDSWGQGTTLTVSS
chain 2: not shown
notes: VL-linker-VH-CH1-CH2-CH3 (VLfH) plus a separate CL domain disulfide-bonded to CH1; also called 28B7 tcIgG; 28B7 tcIgG1; not shown: human IgG1 heavy chain constant region (CH1-hinge-CH2-CH3); monospecific tcIgG were made by c

binding result (Rat KLB): no binding (tested: not given)
Kd [1]: 2.65 nM
koff [1]: 0.000276 s⁻¹
kon [2]: 104000 M⁻¹ s⁻¹
kon [4]: 104000 M⁻¹ s⁻¹
B2: anti-KLB monoclonal antibody 28B7 (antibody, IgG1, V domains shown)
VH: EVQLQQSGPELVQPGTSVKISCEASGYTFTDYYINWVKQSRGKSLEWIGDINPNNGDTTYNQKFKAKATLTVDRSSNTAYMELRSLTSEDSVVYYCARRFYSSPFDSWGQGTTLTVSS
VL: DIVMTQSPSSLAVSVGEKVTLSCKSGQSLLYSRNQKNYLAWYQQKPGQSPKLLISWASTRESGVPDRFTGSGSGTDFTLTISSVKTEDLAVYHCQQYYSYPYTFGGGTRLEIK
notes: also called clone 28B7; 28B7 IgG
